“Also recorded” adds a separate entry of the source.
Target: T1, CR2 (Homo sapiens, UniProt P20023, G20A)
T1 sequence (P20023 20-153 G20A): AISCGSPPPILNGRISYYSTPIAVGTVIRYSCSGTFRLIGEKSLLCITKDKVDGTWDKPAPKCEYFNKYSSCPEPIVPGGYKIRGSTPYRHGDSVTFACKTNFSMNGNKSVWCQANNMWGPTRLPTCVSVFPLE
Assay: native gel shift assay of the binding between CR2 and C3d wild type or mutants
Conditions: for interaction with CR2 (shift of C3d band to the complex form): 6% native polyacrylamide gel, same C3d concentration, increasing amount of CR2, compared with wild type C3d
Source text: Based on the complex structure, mutagenesis of C3d around the interface to disrupt CR2 binding was predicted to be difficult. This is because the interaction between CR2 and C3 d involves mostly main-chain H-bonding, and the side chain residues play relatively small roles in the binding. However, to confirm the accuracy of the CR2-C3d interaction seen in this co-crystal structure, two informative C3d mutants were constructed. In mutant 170 (mt170; SEQ ID NO:8), residue Asn170 was changed to Arg. Asn170 is located on H7 of C3d and is the only residue on C3d that more or less points directly toward CR2 in the interface (FIG. 3E). Asn170 also packs directly with Tyr81 of CR2 as well as forms an H-bond with CR2 (Lys100) through a water molecule (FIG. 3E).
Briefly, FIGS. 4A and 4B show a native gel shift assay of the binding between CR2 and C3d wild type (wt) or mutants (mt). […] The C3d band will be shifted to the upper part of the gel when it forms a complex with CR2. The C3d concentration (for both wt and mt) is the same throughout lanes 1-12. The CR2 added to each corresponding lanes for wt and mt C3d was also the same, e.g. same amount of CR2 was added to the C3d samples in lane 2, 6 and 10, or in lanes 4, 8 and 12. […] The same conclusion can be drawn by comparing the intensity of the bands of the complexes containing the wt, mt115 and mt170. FIG. 4B is a graphical representation showing the intensity changes of the complex bands (measured by densitometry) as CR2 concentration increases from lanes 2 to 4 (wt), or lanes 6 to 8 (mt115), or lanes 10 to 12 (mt170).
The result shown in this experiment is consistent with that predicted by the interaction interface seen in the complex structure. […] This is consistent with the complex structure in that all these three residues, even though located within the interface area, have their side chains pointing sideways and are not involved in the direct contact with CR2. The side chain of Glu117, however, participates in the Zn coordination. […] The coordinated Zn in the structure, therefore, could simply come from the crystallization buffer which contained ZnAcetate.

Substance	interaction with CR2 (shift of C3d band to the complex form)	apparent affinity for CR2 from intensity of the complex bands (densitometry) (as CR2 concentration increases, FIG. 4B)
wt: wild type human C3d (SEQ ID NO:7), CR2 ligand [reference compound]	completely shifted to the complex form	–
mt170: C3d mutant, residue Asn170 changed to Arg (SEQ ID NO:8)	clearly less strong; also recorded: still contains an obvious C3d band	less apparent affinity for CR2 than wt and mt115
mt115: C3d mutant Gln105Ala, Leu116Ala, Glu117Ala	completely shifted to the complex form; also recorded: no obvious effect on CR2 binding	–
